Data: patent US20260055162A1

Tests used:
Assay in all cases: cell-based or functional assay
[1] = target: AA-TGFB-019 (TGFB-019), TGF-BR2 ECD-CD28 TM-CD28 ICD
[2] = target: AA-TGFB-073 (TGFB-073), TGF-BR2 ECD-SLAMF7 TM-SLAMF7 ICD
[3] = target: AA-TGFB-078 (TGFB-078), TGF-BR2 ECD-CSF1R TM-CSF1R ICD
[4] = target: AA-TGFB-070 (TGFB-070), TGF-BR2 ECD-SLAMF1 TM-SLAMF1 ICD
[5] = target: AA-TGFB-072 (TGFB-072), TGF-BR2 ECD-SLAMF6 TM-SLAMF6 ICD
[6] = target: AA-TGFB-079 (TGFB-079), TGF-BR2 ECD-FGFR1 TM-FGFR1 ICD
[7] = target: AA-TGFB-058 (TGFB-058), TGF-BR2 ECD-DAP12 TM-DAP12 ICD
[8] = target: AA-TGFB-059 (TGFB-059), TGF-BR2 ECD-CD28 Long TM-TRAF1 ICD
[9] = target: AA-TGFB-086 (TGFB-086), TGF-BR2 ECD-CD28 Long TM-IRAK4 ICD
[10] = target: AA-TGFB-057 (TGFB-057), TGF-BR2 ECD-CD28 Long TM-MYD88 ICD
[11] = target: AA-TGFB-088 (TGFB-088), TGF-BR2 ECD-DR3 TM-DR3 ICD
[12] = target: AA-TGFB-081 (TGFB-081), TGF-BR2 ECD-ICOS TM-ICOS ICD
[13] = target: AA-TGFB-066 (TGFB-066), TGF-BR2 ECD-CD28 Long TM-GRB2 ICD
[14] = target: AA-TGFB-062 (TGFB-062), TGF-BR2 ECD-CD28 Long TM-TRAF6 ICD
[15] = target: AA-TGFB-021 (TGFB-021), TGF-BR2 ECD-CD28 TM-CD3z ICD
[16] = target: AA-TGFB-064 (TGFB-064), TGF-BR2 ECD-CD28 Long TM-TIRAP ICD
[17] = target: AA-TGFB-052 (TGFB-052), TGF-BR2 ECD-CD28 TM-41BB ICD
[18] = target: AA-TGFB-077 (TGFB-077), TGF-BR2 ECD-GCSFR TM-GCSFR ICD
[19] = target: AA-TGFB-096 (TGFB-096), TGF-BR2 ECD-CD28 Long TM-Fgr ICD
[20] = target: AA-TGFB-076 (TGFB-076), TGF-BR2 ECD-EPOR TM-EPOR ICD
[21] = target: AA-TGFB-068 (TGFB-068), TGF-BR2 ECD-FCGR3A TM-FCGR3A ICD
[22] = target: AA-TGFB-051 (TGFB-051), TGF-BR2 ECD-CD28 TM-DAP10v2 ICD
[23] = target: AA-TGFB-071 (TGFB-071), TGF-BR2 ECD-SLAMF5 TM-SLAMF5 ICD
AA-TGFB-071 (TGFB-071), TGF-BR2 ECD-SLAMF5 TM-SLAMF5 ICD, sequence (chain, as listed by the source limits assumed, form in doubt): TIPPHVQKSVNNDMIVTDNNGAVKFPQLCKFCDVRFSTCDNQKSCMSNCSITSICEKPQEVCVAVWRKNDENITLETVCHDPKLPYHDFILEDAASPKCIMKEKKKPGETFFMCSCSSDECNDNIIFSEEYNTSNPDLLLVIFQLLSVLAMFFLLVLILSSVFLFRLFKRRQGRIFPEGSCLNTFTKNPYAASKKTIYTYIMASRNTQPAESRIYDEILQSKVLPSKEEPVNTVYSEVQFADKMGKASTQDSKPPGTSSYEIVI

AA-TGFB-052 (TGFB-052), TGF-BR2 ECD-CD28 TM-41BB ICD, sequence (chain, as listed by the source limits assumed, form in doubt): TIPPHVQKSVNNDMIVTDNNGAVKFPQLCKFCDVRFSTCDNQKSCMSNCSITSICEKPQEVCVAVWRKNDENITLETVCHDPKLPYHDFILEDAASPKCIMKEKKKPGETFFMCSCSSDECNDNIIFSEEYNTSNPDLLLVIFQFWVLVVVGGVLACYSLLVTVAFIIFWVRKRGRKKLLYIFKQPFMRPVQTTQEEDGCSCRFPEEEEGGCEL
AA-TGFB-077 (TGFB-077), TGF-BR2 ECD-GCSFR TM-GCSFR ICD, sequence (chain, as listed by the source limits assumed, form in doubt): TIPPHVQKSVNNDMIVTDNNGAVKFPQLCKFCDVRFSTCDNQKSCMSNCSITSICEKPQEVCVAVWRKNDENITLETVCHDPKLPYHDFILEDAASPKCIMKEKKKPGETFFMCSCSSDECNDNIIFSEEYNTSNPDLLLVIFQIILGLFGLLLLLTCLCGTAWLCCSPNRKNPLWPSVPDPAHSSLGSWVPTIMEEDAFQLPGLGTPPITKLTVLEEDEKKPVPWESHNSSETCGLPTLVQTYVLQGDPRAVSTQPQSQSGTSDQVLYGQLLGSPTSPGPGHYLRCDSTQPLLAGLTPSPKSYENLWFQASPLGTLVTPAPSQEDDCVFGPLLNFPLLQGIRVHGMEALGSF
AA-TGFB-019 (TGFB-019), TGF-BR2 ECD-CD28 TM-CD28 ICD, sequence (chain, as listed by the source limits assumed, form in doubt): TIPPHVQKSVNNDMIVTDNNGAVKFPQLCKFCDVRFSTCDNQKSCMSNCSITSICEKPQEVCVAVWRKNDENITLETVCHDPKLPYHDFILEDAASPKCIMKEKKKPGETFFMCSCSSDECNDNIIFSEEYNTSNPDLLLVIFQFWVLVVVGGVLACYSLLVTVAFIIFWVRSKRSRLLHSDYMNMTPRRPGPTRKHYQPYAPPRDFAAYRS
AA-TGFB-076 (TGFB-076), TGF-BR2 ECD-EPOR TM-EPOR ICD, sequence (chain, as listed by the source limits assumed, form in doubt): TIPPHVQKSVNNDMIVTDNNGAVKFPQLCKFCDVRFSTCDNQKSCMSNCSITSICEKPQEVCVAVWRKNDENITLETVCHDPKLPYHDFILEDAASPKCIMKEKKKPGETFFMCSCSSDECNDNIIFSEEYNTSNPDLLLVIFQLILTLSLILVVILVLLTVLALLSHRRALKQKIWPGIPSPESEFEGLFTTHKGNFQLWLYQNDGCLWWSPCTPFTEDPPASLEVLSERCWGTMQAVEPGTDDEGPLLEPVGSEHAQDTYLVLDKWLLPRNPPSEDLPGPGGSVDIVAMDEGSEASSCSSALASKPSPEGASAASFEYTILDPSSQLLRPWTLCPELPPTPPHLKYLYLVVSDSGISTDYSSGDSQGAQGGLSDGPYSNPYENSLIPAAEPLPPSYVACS
AA-TGFB-059 (TGFB-059), TGF-BR2 ECD-CD28 Long TM-TRAF1 ICD, sequence (chain, as listed by the source limits assumed, form in doubt): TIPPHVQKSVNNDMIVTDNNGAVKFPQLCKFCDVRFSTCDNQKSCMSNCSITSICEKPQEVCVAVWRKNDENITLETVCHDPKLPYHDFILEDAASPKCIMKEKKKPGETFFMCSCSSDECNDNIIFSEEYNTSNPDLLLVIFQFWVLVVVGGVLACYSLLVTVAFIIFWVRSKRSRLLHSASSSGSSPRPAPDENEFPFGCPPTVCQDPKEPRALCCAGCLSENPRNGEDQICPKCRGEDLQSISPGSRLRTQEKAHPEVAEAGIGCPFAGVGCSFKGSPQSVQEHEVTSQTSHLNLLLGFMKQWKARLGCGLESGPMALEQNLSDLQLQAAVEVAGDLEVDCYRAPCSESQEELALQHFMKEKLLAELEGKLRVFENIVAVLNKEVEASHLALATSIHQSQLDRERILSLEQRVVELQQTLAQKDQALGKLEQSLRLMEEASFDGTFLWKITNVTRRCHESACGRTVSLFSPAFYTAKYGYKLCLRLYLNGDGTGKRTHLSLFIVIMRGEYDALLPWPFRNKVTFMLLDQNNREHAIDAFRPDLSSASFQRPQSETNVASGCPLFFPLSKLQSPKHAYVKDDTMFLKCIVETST
AA-TGFB-086 (TGFB-086), TGF-BR2 ECD-CD28 Long TM-IRAK4 ICD, sequence (chain, as listed by the source limits assumed, form in doubt): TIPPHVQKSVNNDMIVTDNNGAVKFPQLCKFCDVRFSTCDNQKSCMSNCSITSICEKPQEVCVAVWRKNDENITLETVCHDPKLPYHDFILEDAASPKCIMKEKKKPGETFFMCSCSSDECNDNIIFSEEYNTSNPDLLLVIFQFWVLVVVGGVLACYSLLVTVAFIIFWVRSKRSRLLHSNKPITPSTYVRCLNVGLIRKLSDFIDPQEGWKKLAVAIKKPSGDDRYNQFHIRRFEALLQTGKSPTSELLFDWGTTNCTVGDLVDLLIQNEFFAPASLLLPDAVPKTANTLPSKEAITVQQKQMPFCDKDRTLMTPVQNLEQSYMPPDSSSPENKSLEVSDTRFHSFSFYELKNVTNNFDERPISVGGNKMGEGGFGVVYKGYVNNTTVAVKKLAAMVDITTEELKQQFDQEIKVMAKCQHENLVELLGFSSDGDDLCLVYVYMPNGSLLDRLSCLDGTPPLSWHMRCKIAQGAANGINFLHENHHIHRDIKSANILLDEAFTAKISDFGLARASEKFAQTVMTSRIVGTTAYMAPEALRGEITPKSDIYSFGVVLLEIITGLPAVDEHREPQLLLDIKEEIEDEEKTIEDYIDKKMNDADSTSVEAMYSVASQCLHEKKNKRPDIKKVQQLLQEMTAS
AA-TGFB-070 (TGFB-070), TGF-BR2 ECD-SLAMF1 TM-SLAMF1 ICD, sequence (chain, as listed by the source limits assumed, form in doubt): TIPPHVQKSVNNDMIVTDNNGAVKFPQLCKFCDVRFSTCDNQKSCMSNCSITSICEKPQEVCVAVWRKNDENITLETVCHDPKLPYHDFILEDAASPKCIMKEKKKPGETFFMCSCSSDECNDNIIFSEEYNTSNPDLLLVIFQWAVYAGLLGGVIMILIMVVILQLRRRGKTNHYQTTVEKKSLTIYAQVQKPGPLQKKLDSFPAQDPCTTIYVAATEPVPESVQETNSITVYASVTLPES
AA-TGFB-051 (TGFB-051), TGF-BR2 ECD-CD28 TM-DAP10v2 ICD, sequence (chain, as listed by the source limits assumed, form in doubt): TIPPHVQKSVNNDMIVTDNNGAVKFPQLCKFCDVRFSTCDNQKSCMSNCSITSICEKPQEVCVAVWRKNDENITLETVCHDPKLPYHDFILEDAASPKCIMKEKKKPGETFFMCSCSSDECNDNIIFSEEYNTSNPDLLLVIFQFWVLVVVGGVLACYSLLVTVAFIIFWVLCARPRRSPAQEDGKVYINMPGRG
AA-TGFB-072 (TGFB-072), TGF-BR2 ECD-SLAMF6 TM-SLAMF6 ICD, sequence (chain, as listed by the source limits assumed, form in doubt): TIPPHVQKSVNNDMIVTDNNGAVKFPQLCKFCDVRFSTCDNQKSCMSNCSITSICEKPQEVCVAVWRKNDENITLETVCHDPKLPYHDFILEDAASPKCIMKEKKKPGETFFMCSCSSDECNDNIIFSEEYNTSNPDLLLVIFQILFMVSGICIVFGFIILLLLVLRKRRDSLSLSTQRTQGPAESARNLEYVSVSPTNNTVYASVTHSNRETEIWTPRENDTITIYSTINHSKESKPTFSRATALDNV
AA-TGFB-058 (TGFB-058), TGF-BR2 ECD-DAP12 TM-DAP12 ICD, sequence (chain, as listed by the source limits assumed, form in doubt): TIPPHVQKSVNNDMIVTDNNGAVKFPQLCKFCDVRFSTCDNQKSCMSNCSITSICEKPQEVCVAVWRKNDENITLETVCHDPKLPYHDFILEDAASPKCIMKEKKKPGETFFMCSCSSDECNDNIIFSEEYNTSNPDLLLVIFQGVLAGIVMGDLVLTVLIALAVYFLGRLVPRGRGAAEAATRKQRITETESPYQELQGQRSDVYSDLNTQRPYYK
AA-TGFB-066 (TGFB-066), TGF-BR2 ECD-CD28 Long TM-GRB2 ICD, sequence (chain, as listed by the source limits assumed, form in doubt): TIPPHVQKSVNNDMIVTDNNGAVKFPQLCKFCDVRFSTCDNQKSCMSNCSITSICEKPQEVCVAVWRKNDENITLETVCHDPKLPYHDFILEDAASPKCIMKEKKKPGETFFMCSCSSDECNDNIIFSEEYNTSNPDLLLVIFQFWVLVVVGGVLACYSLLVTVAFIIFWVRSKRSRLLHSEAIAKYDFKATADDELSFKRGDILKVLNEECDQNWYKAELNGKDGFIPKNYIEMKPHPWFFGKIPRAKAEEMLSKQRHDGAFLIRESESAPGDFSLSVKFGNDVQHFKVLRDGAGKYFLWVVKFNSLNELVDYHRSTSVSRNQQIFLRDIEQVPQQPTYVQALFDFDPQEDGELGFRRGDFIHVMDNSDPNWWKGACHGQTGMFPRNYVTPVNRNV
AA-TGFB-068 (TGFB-068), TGF-BR2 ECD-FCGR3A TM-FCGR3A ICD, sequence (chain, as listed by the source limits assumed, form in doubt): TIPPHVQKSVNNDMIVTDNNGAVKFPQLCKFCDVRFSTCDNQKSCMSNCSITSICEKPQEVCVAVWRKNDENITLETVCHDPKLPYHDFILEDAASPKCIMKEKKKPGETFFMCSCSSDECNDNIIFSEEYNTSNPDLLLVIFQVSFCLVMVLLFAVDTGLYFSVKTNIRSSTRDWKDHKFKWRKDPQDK
recombinant TGF-B1 cytokine, sequence (P01137 279-390 limits assumed): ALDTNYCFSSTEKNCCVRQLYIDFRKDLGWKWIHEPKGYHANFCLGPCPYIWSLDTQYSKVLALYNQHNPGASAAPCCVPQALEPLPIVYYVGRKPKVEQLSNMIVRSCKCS
AA-TGFB-064 (TGFB-064), TGF-BR2 ECD-CD28 Long TM-TIRAP ICD, sequence (chain, as listed by the source limits assumed, form in doubt): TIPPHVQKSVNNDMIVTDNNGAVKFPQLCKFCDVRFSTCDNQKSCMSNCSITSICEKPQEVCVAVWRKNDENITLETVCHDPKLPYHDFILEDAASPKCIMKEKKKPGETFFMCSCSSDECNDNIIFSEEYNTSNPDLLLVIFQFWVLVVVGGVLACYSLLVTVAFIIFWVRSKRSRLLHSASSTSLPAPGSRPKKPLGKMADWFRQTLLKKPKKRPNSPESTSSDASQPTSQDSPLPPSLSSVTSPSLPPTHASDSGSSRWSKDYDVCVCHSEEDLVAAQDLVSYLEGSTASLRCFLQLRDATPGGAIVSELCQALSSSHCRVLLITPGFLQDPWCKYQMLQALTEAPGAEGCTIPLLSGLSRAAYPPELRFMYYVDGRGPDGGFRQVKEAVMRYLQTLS

5-Day Fold Expansion of NK cells, 10 ng/mL TGF-B1 [1]: 1.99 fold
Average IFNg Secretion, 10 ng/mL TGF-B1 [1]: 6700 pg/mL
Average IP-10 Secretion, 10 ng/mL TGF-B1 [1]: 1170
5-Day Fold Expansion of NK cells, 10 ng/mL TGF-B1 [2]: 3.08 fold
Average IFNg Secretion, 10 ng/mL TGF-B1 [2]: 6910 pg/mL
Average IP-10 Secretion, 10 ng/mL TGF-B1 [2]: 1420
5-Day Fold Expansion of NK cells, 10 ng/mL TGF-B1 [3]: 2.14 fold
Average IFNg Secretion, 10 ng/mL TGF-B1 [3]: 6320 pg/mL
Average IP-10 Secretion, 10 ng/mL TGF-B1 [3]: 1000
5-Day Fold Expansion of NK cells, 10 ng/mL TGF-B1 [4]: 4.03 fold
Average IFNg Secretion, 10 ng/mL TGF-B1 [4]: 7690 pg/mL
Average IP-10 Secretion, 10 ng/mL TGF-B1 [4]: 1630
5-Day Fold Expansion of NK cells, 10 ng/mL TGF-B1 [5]: 3.89 fold
Average IFNg Secretion, 10 ng/mL TGF-B1 [5]: 8700 pg/mL
Average IP-10 Secretion, 10 ng/mL TGF-B1 [5]: 1880
5-Day Fold Expansion of NK cells, 10 ng/mL TGF-B1 [6]: 1.49 fold
Average IFNg Secretion, 10 ng/mL TGF-B1 [6]: 3580 pg/mL
Average IP-10 Secretion, 10 ng/mL TGF-B1 [6]: 685
5-Day Fold Expansion of NK cells, 10 ng/mL TGF-B1 [7]: 1.76 fold
Average IFNg Secretion, 10 ng/mL TGF-B1 [7]: 2360 pg/mL
Average IP-10 Secretion, 10 ng/mL TGF-B1 [7]: 837
5-Day Fold Expansion of NK cells, 10 ng/mL TGF-B1 [8]: 0.9 fold
Average IFNg Secretion, 10 ng/mL TGF-B1 [8]: 3060 pg/mL
Average IP-10 Secretion, 10 ng/mL TGF-B1 [8]: 1300
5-Day Fold Expansion of NK cells, 10 ng/mL TGF-B1 [9]: 1.76 fold
Average IFNg Secretion, 10 ng/mL TGF-B1 [9]: 3150 pg/mL
Average IP-10 Secretion, 10 ng/mL TGF-B1 [9]: 938
5-Day Fold Expansion of NK cells, 10 ng/mL TGF-B1 [10]: 1.02 fold
Average IFNg Secretion, 10 ng/mL TGF-B1 [10]: 7770 pg/mL
Average IP-10 Secretion, 10 ng/mL TGF-B1 [10]: 2760
5-Day Fold Expansion of NK cells, 10 ng/mL TGF-B1 [11]: 0.66 fold
5-Day Fold Expansion of NK cells, 10 ng/mL TGF-B1 [12]: 2.31 fold
Average IFNg Secretion, 10 ng/mL TGF-B1 [12]: > 9000 pg/mL
Average IP-10 Secretion, 10 ng/mL TGF-B1 [12]: 2180
5-Day Fold Expansion of NK cells, 10 ng/mL TGF-B1 [13]: 1.44 fold
Average IFNg Secretion, 10 ng/mL TGF-B1 [13]: 3270 pg/mL
Average IP-10 Secretion, 10 ng/mL TGF-B1 [13]: 1240
5-Day Fold Expansion of NK cells, 10 ng/mL TGF-B1 [14]: 1.41 fold
Average IFNg Secretion, 10 ng/mL TGF-B1 [14]: 3010 pg/mL
Average IP-10 Secretion, 10 ng/mL TGF-B1 [14]: 1370
5-Day Fold Expansion of NK cells, 10 ng/mL TGF-B1 [15]: 0.45 fold
CD69, fold-change of MFI over no stimulation, High (0.05 ug/mL) [15]: 93 fold
CD69, fold-change of MFI over no stimulation, Low (0.002 ug/mL) [15]: 21.5 fold
CD69, fold-change of MFI over no stimulation, Med. (0.01 ug/mL) [15]: 62.2 fold
GFP, fold-change of MFI over no stimulation, High (0.05 ug/mL) [15]: 10.1 fold
GFP, fold-change of MFI over no stimulation, Low (0.002 ug/mL) [15]: 2.8 fold
GFP, fold-change of MFI over no stimulation, Med. (0.01 ug/mL) [15]: 9.3 fold
5-Day Fold Expansion of NK cells, 10 ng/mL TGF-B1 [16]: 1.04 fold
Average IFNg Secretion, 10 ng/mL TGF-B1 [16]: 4790 pg/mL
Average IP-10 Secretion, 10 ng/mL TGF-B1 [16]: 1540
5-Day Fold Expansion of NK cells, 10 ng/mL TGF-B1 [17]: 1.57 fold
Average IFNg Secretion, 10 ng/mL TGF-B1 [17]: 8770 pg/mL
Average IP-10 Secretion, 10 ng/mL TGF-B1 [17]: 976
5-Day Fold Expansion of NK cells, 10 ng/mL TGF-B1 [18]: 2.52 fold
Average IFNg Secretion, 10 ng/mL TGF-B1 [18]: 6640 pg/mL
Average IP-10 Secretion, 10 ng/mL TGF-B1 [18]: 1410
5-Day Fold Expansion of NK cells, 10 ng/mL TGF-B1 [19]: 1 fold
Average IFNg Secretion, 10 ng/mL TGF-B1 [19]: > 9000 pg/mL
Average IP-10 Secretion, 10 ng/mL TGF-B1 [19]: 2330
5-Day Fold Expansion of NK cells, 10 ng/mL TGF-B1 [20]: 2.94 fold
Average IFNg Secretion, 10 ng/mL TGF-B1 [20]: 6650 pg/mL
Average IP-10 Secretion, 10 ng/mL TGF-B1 [20]: 1340
5-Day Fold Expansion of NK cells, 10 ng/mL TGF-B1 [21]: 1.55 fold
Average IFNg Secretion, 10 ng/mL TGF-B1 [21]: 2820 pg/mL
Average IP-10 Secretion, 10 ng/mL TGF-B1 [21]: 686
5-Day Fold Expansion of NK cells, 10 ng/mL TGF-B1 [22]: 1.42 fold
Average IFNg Secretion, 10 ng/mL TGF-B1 [22]: 4200 pg/mL
Average IP-10 Secretion, 10 ng/mL TGF-B1 [22]: 671
5-Day Fold Expansion of NK cells, 10 ng/mL TGF-B1 [23]: 3.06 fold
Average IFNg Secretion, 10 ng/mL TGF-B1 [23]: > 9000 pg/mL
Average IP-10 Secretion, 10 ng/mL TGF-B1 [23]: 2300
Substance: recombinant TGF-B1 cytokine (from UniProt P01137 279-390) (ligand)
Average % Killing (SKOV-3), 10 ng/mL TGF-B1 [1]: 21.1%
Average % Killing (SKOV-3), 10 ng/mL TGF-B1 [2]: 13.1%
Average % Killing (SKOV-3), 10 ng/mL TGF-B1 [3]: 15.2%
Average % Killing (SKOV-3), 10 ng/mL TGF-B1 [4]: 13.2%
Average % Killing (SKOV-3), 10 ng/mL TGF-B1 [5]: 15%
Average % Killing (SKOV-3), 10 ng/mL TGF-B1 [6]: 9.28%
Average % Killing (SKOV-3), 10 ng/mL TGF-B1 [7]: 8.35%
Average % Killing (SKOV-3), 10 ng/mL TGF-B1 [8]: 7.99%
Average % Killing (SKOV-3), 10 ng/mL TGF-B1 [9]: 7.83%
Average % Killing (SKOV-3), 10 ng/mL TGF-B1 [10]: 11.2%
Average % Killing (SKOV-3), 10 ng/mL TGF-B1 [11]: 2.23%
Average % Killing (SKOV-3), 10 ng/mL TGF-B1 [12]: 18.8%
Average % Killing (SKOV-3), 10 ng/mL TGF-B1 [13]: 8.89%
Average % Killing (SKOV-3), 10 ng/mL TGF-B1 [14]: 8.4%
Average % Killing (SKOV-3), 10 ng/mL TGF-B1 [15]: 2.26%
Average % Killing (SKOV-3), 10 ng/mL TGF-B1 [16]: 9.89%
Average % Killing (SKOV-3), 10 ng/mL TGF-B1 [17]: 12.8%
Average % Killing (SKOV-3), 10 ng/mL TGF-B1 [18]: 14.4%
Average % Killing (SKOV-3), 10 ng/mL TGF-B1 [19]: 16%
Average % Killing (SKOV-3), 10 ng/mL TGF-B1 [20]: 14.3%
Average % Killing (SKOV-3), 10 ng/mL TGF-B1 [21]: 8.25%
Average % Killing (SKOV-3), 10 ng/mL TGF-B1 [22]: 11.4%
Average % Killing (SKOV-3), 10 ng/mL TGF-B1 [23]: 18.8%
